Assay results reported in paper PMC4623691.
One block for each substance: values may come before it.

Columns and labels:
[1] = molecular target: chloroplastic glutamine synthetase GS2 of wheat (Triticum aestivum (endogenous in wheat seedlings)); test: native gel or EMSA; modified blue native electrophoresis (BNE), 4-13% polyacrylamide gradient gel, 4 °C; 1 h with cathode buffer with 0.02% Coomassie G250, then buffer without dye; ~100 ug soluble proteins from wheat seedling chloroplasts, leaves and roots; GS bands detected by in-gel transferase activity; mass calibrated against high-molecular-weight markers
[2] = molecular target: cytosolic glutamine synthetase GS1 holoenzyme of wheat (39 kDa subunit) (Triticum aestivum (endogenous in wheat seedlings)) (UniProt Q45NB7); test: as above
[3] = molecular target: maize glutamine synthetase (maize (endogenous in maize leaf and roots)); test: native gel or EMSA; maize leaf and root extracts beside wheat (Supplementary Fig. S5); gel system not given

stoichiometry N [1]: 6
Substance: chloroplastic glutamine synthetase GS2 of wheat (natural protein)

stoichiometry N [2]: 12
Substance: cytosolic glutamine synthetase GS1 holoenzyme of wheat (39 kDa subunit) (from UniProt Q45NB7 1-356) (natural protein)

stoichiometry N [3]: 10
Substance: maize glutamine synthetase (natural protein)
